Laboratory results published in patent US20190010233A1 (JIANGSU HYAMAB PHARMACEUTICAL, published 2019).
Read-outs that look alike come from different tables or passages of the source.

What was measured:
[1] = molecular target: T1, human PD-L1^ECD-hFc protein (human, UniProt Q9NZQ7 19-239, biotinylated in the PD-1 binding ELISA (Table 3) and in the Octet assay (Table 12)); assay: ELISA, 3 nM mAb
T1 construct: The plain and the biotinylated protein are kept as one molecule; also called PD-L1-hFc; Immunogen A; not shown: human IgG Fc fragment (hFc)

[2] = molecular target: T2, cyno PD-L1^ECD-hFc protein (cyno, UniProt G7PSE7 19-239); assay: ELISA, 3 nM mAb
T2 construct: also called Cyno Monkey PD-L1^ECD-hFc

[3] = molecular target: T1, human PD-L1^ECD-hFc protein; assay: ELISA, 30 nM mAb
[4] = molecular target: T2, cyno PD-L1^ECD-hFc protein; assay: ELISA, 30 nM mAb
[5] = molecular target: T1, human PD-L1^ECD-hFc protein; assay: ELISA, 0.3 nM mAb
[6] = molecular target: T2, cyno PD-L1^ECD-hFc protein; assay: ELISA, 0.3 nM mAb
[7] = molecular target: T1, human PD-L1^ECD-hFc protein; assay: ELISA, 0.03 nM mAb
[8] = molecular target: T2, cyno PD-L1^ECD-hFc protein; assay: ELISA, 0.03 nM mAb
[9] = molecular target: T1, human PD-L1^ECD-hFc protein; assay: ELISA, 0.003 nM mAb
[10] = molecular target: T2, cyno PD-L1^ECD-hFc protein; assay: ELISA, 0.003 nM mAb
[11] = molecular target: T1, human PD-L1^ECD-hFc protein; assay: ELISA, 0.0003 nM mAb
[12] = molecular target: T2, cyno PD-L1^ECD-hFc protein; assay: ELISA, 0.0003 nM mAb
[13] = molecular target: T1, human PD-L1^ECD-hFc protein; assay: ELISA, 0.00003 nM mAb
[14] = molecular target: T2, cyno PD-L1^ECD-hFc protein; assay: ELISA, 0.00003 nM mAb
[15] = molecular target: T3, full length human PD-L1 on cells (human, UniProt Q9NZQ7 19-290); assay: cell-based or functional assay
[16] = molecular target: T1, human PD-L1^ECD-hFc protein; assay: ELISA receptor-ligand blocking assay: PD-L1 protein coated, fully human antibody titrated, blocked ligand PD-1, inhibition rate (%)
[17] = molecular target: T1, human PD-L1^ECD-hFc protein; assay: ELISA receptor-ligand blocking assay: PD-L1 protein coated, fully human antibody titrated, blocked ligand B7.1, inhibition rate (%)
[18] = molecular target: T3, full length human PD-L1 on cells; assay: cell-based or functional assay; remark: listed apart in the source
[19] = molecular target: T3, full length human PD-L1 on cells; assay: cell-based or functional assay; remark: listed apart in the source
[20] = molecular target: T3, full length human PD-L1 on cells; assay: cell-based or functional assay; remark: listed apart in the source
[21] = molecular target: T3, full length human PD-L1 on cells; assay: cell-based or functional assay; remark: listed apart in the source

T3 sequence (Q9NZQ7 19-290 limits assumed): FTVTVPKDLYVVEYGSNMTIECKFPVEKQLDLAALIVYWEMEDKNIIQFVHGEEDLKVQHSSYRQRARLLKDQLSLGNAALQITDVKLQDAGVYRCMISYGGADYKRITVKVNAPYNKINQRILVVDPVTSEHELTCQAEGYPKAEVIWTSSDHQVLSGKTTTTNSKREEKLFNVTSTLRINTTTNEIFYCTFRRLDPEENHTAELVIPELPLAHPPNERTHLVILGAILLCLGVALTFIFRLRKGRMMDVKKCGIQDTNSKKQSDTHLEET
T2 sequence (G7PSE7 entry or part of it limits assumed): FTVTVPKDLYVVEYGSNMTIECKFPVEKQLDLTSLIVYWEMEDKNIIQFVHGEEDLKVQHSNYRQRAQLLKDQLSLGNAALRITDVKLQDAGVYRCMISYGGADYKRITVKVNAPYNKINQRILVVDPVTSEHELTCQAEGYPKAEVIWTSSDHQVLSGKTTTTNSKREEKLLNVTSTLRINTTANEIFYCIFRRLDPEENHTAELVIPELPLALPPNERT
T1 sequence (Q9NZQ7 19-239): as the sequence (G7PSE7 entry or part of it limits assumed) above, with T33A, S34A, N62S, Q68R, R82Q, L173F, A185T, I192T, L215H counted along it

| OD450 nm [1] | OD450 nm [2] | OD450 nm [3] | OD450 nm [4] | OD450 nm [5] | OD450 nm [6] | OD450 nm [7] | OD450 nm [8] | OD450 nm [9] | OD450 nm [10] | OD450 nm [11] | OD450 nm [12] | OD450 nm [13] | OD450 nm [14] | IFN-γ (pg/mL), T cell stimulation assay, 0.001 µg/mL mAb [15] | IFN-γ (pg/mL), T cell stimulation assay, 0.01 µg/mL mAb [15] | IFN-γ (pg/mL), T cell stimulation assay, 0.1 µg/mL mAb [15] | IFN-γ (pg/mL), T cell stimulation assay, 1 µg/mL mAb [15] | IC50 (read off the curve) [16] | IC50 (read off the curve) [17] | Binder | other results |
| --- | --- | --- | --- | --- | --- | --- | --- | --- | --- | --- | --- | --- | --- | --- | --- | --- | --- | --- | --- | --- | --- |
| 2.68 | 2.6 | 2.59 | 2.59 | 2.48 | 2.49 | 0.852 | 0.889 | 0.329 | 0.332 | 0.264 | 0.28 | 0.281 | 0.297 | 5090 pg/mL | 11200 pg/mL | 9340 pg/mL | 14100 pg/mL | ~2 nM | ~1 nM | fully human anti-PD-L1 antibody 127D2F3 (antibody, human IgG4 S228P, kappa, V domains shown, also called 127D2F3 (fully human)) VH: EVQLVESGGGLVQPGGSLRLSCVASGFTFSSYWMSWVRQAPGKGLEWVANIKQDGSEKYYVDSVKGRLTISRDNAKNSLYLQMKSLRAEDTAVYYCARDPIYSSYFDYWGQGILVTVSS VL: DIQMTQSPSSLSASVGDRVTITCRASQSISNYLNWYQQKPGKAPKLLIYAASSLQSGVPSRFSGSGSGTDFTLTISSLQPEDFAAYYCQQSYGIPFTFGPGTKVDIKR | – |
| 2.72 | 2.65 | 2.67 | 2.6 | 2.48 | 2.52 | 0.855 | 1 | 0.403 | 0.358 | 0.254 | 0.283 | 0.256 | 0.308 | 6780 pg/mL | 10900 pg/mL | 13100 pg/mL | 13500 pg/mL | ~1 nM | ~0.9 nM | fully human anti-PD-L1 antibody 73G11B3 (antibody, human IgG4 S228P, kappa, V domains shown, also called 73G11B3 (fully human)) VH: EVQLVESGGGLVQPGGSLRLSCVVSGFTFSSYWMSWVRQTPGKGLEWVANIKQDGSEKYYVDSVKGRLTISRDNAKNSLYLQMNSLRAEDTAVYYCVRDRAVPGTGALDIWGQGTMVTVSS VL: not shown | IL-2 (pg/mL), MLR, 0.001 µg/mL mAb [18]: 215 pg/mL; IL-2 (pg/mL), MLR, 0.01 µg/mL mAb [18]: 274 pg/mL; IL-2 (pg/mL), MLR, 0.1 µg/mL mAb [18]: 654 pg/mL; IL-2 (pg/mL), MLR, 1 µg/mL mAb [18]: 729 pg/mL; IL-2 (pg/mL), MLR, 10 µg/mL mAb [18]: 601 pg/mL; IFN-γ (pg/mL), MLR, 0.001 µg/mL mAb [19]: 9790 pg/mL; IFN-γ (pg/mL), MLR, 0.01 µg/mL mAb [19]: 10700 pg/mL; IFN-γ (pg/mL), MLR, 0.1 µg/mL mAb [19]: 21700 pg/mL; IFN-γ (pg/mL), MLR, 1 µg/mL mAb [19]: 21700 pg/mL; IFN-γ (pg/mL), MLR, 10 µg/mL mAb [19]: 16900 pg/mL; IFN-γ (pg/mL), T cell stimulation assay, 0.001 µg/mL mAb [20]: 5120 pg/mL; IFN-γ (pg/mL), T cell stimulation assay, 0.01 µg/mL mAb [20]: 6340 pg/mL; IFN-γ (pg/mL), T cell stimulation assay, 0.1 µg/mL mAb [20]: 9360 pg/mL; IFN-γ (pg/mL), T cell stimulation assay, 1 µg/mL mAb [20]: 8790 pg/mL; IFN-γ (pg/mL), T cell stimulation assay, 10 µg/mL mAb [20]: 13100 pg/mL |
| 2.67 | 2.66 | 2.59 | 2.54 | 2.52 | 2.55 | 0.786 | 0.953 | 0.322 | 0.376 | 0.285 | 0.348 | 0.287 | 0.324 | 6150 pg/mL | 13100 pg/mL | 11500 pg/mL | 15200 pg/mL | ~1 nM | ~0.8 nM | fully human anti-PD-L1 antibody 192D9E7 (antibody, human IgG4 S228P, kappa, V domains shown, also called 192D9E7 (fully human); 192D9F7) VH: EVQLVESGGGLVQPGGSLRLSCAASGFTFSSYWMSWVRQAPGKGLEWVADIKQDGSEKYYVDSVKGRFTISRDNAKNSLYLQMNSLRAEDTAVYYCTRDKPHWGGVMDAWGQGTSVTVSS VL: not shown | IL-2 (pg/mL), MLR, 0.001 µg/mL mAb [18]: 210 pg/mL; IL-2 (pg/mL), MLR, 0.01 µg/mL mAb [18]: 341 pg/mL; IL-2 (pg/mL), MLR, 0.1 µg/mL mAb [18]: 713 pg/mL; IL-2 (pg/mL), MLR, 1 µg/mL mAb [18]: 721 pg/mL; IL-2 (pg/mL), MLR, 10 µg/mL mAb [18]: 770 pg/mL; IFN-γ (pg/mL), MLR, 0.001 µg/mL mAb [21]: 592 pg/mL; IFN-γ (pg/mL), MLR, 0.01 µg/mL mAb [21]: 915 pg/mL; IFN-γ (pg/mL), MLR, 0.1 µg/mL mAb [21]: 1870 pg/mL; IFN-γ (pg/mL), MLR, 1 µg/mL mAb [21]: 2760 pg/mL; IFN-γ (pg/mL), MLR, 10 µg/mL mAb [21]: 2270 pg/mL; IFN-γ (pg/mL), MLR, 0.001 µg/mL mAb [19]: 9030 pg/mL; IFN-γ (pg/mL), MLR, 0.01 µg/mL mAb [19]: 11200 pg/mL; IFN-γ (pg/mL), MLR, 0.1 µg/mL mAb [19]: 19600 pg/mL; IFN-γ (pg/mL), MLR, 1 µg/mL mAb [19]: 22900 pg/mL; IFN-γ (pg/mL), MLR, 10 µg/mL mAb [19]: 15500 pg/mL |
